According to publication PMC3913438, “Nucleotide Pyrophosphatase/Phosphodiesterase 1 Exerts a Negative Effect on Starch Accumulation and Growth in Rice Seedlings under High Temperature and CO2 Concentration Conditions” (Plant and Cell Physiology, 2013):

Key:
NPP1 = target: T1, NPP1 (Oryza sativa, UniProt Q0X0G2); experiment: hydrolysis kinetics, […] substrate; type: biochemical; settings: 37°C, optimal pH
T1 construct: recombinant, purified from transgenic rice cells (UNP1) overexpressing NPP1 cDNA; 70 kDa SDS-PAGE, 251 kDa gel filtration; gene on chromosome 8
T1 sequence (Q0X0G2 26-623): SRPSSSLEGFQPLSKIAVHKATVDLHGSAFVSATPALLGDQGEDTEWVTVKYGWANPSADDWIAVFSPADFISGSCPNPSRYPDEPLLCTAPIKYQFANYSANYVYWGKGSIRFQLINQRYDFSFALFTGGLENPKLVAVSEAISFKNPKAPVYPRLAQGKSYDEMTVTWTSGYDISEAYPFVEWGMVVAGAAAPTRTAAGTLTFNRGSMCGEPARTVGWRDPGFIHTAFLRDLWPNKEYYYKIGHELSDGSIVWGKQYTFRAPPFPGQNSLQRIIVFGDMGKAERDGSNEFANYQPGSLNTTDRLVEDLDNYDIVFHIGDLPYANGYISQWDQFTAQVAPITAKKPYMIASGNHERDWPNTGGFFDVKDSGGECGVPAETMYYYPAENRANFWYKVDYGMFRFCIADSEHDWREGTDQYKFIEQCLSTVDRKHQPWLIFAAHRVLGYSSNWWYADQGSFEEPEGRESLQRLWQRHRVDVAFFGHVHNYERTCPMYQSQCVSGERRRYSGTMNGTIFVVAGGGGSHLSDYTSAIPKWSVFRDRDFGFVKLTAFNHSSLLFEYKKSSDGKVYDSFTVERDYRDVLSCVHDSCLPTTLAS

purified protein [1] = substrate: O=c1ccn([C@@H]2O[C@H](COP(=O)(O)OP(=O)(O)O)[C@@H](O)[C@H]2O)c(=O)[nH]1; experiment: purified protein; settings: 37°C, optimal pH
purified protein [2] = substrate: Nc1ccn([C@@H]2O[C@H](COP(=O)(O)OP(=O)(O)O)[C@@H](O)[C@H]2O)c(=O)n1; experiment: purified protein; type: biochemical, Oryza sativa; settings: 37°C, optimal pH
purified protein [3] = substrate: Nc1nc2c(ncn2[C@@H]2O[C@H](COP(=O)(O)OP(=O)(O)O)[C@@H](O)[C@H]2O)c(=O)[nH]1; experiment: purified protein; type: biochemical, Oryza sativa; settings: 37°C, optimal pH
purified protein [4] = substrate: Nc1ncnc2c1ncn2[C@@H]1O[C@H](COP(=O)(O)OP(=O)(O)O)[C@@H](O)[C@H]1O; experiment: purified protein; type: biochemical, Oryza sativa; settings: 37°C, no metal required
purified protein [5] = substrate: O=[N+]([O-])c1ccc(OP(=O)(O)Oc2ccc([N+](=O)[O-])cc2)cc1; experiment: purified protein; type: biochemical, Oryza sativa; settings: 37°C, optimal pH
purified protein [6] = substrate: O=c1[nH]cnc2c1ncn2[C@@H]1O[C@H](COP(=O)(O)OP(=O)(O)O)[C@@H](O)[C@H]1O; experiment: purified protein; type: biochemical, Oryza sativa; settings: 37°C, optimal pH
purified protein [7] = substrate: NC(=O)c1ccc[n+]([C@@H]2O[C@H](COP(=O)(O)OP(=O)(O)OC[C@H]3O[C@@H](n4cnc5c(N)ncnc54)[C@H](O)[C@@H]3O)[C@@H](O)[C@H]2O)c1; experiment: purified protein; type: biochemical, Oryza sativa; settings: 37°C, optimal pH
purified protein [8] = substrate: Nc1ncnc2c1ncn2[C@@H]1O[C@H](COP(=O)(O)OP(=O)(O)O[C@H]2O[C@H](CO)[C@@H](O)[C@H](O)[C@H]2O)[C@@H](O)[C@H]1O; experiment: purified protein; type: biochemical, Oryza sativa; settings: 37°C
[9] = substrate: NC(=O)c1ccc[n+]([C@@H]2O[C@H](COP(=O)([O-])OP(=O)(O)OC[C@H]3O[C@@H](n4cnc5c(N)ncnc54)[C@H](OP(=O)(O)O)[C@@H]3O)[C@@H](O)[C@H]2O)c1; experiment: purified protein, by the assay type; design: steady-state hydrolysis kinetics of purified recombinant rice NPPs, substrate 0.1-10 mM, 37 °C, optimal pH
Description: (§1) To carry out substrate specificity and kinetic studies of NPP1, NPP2 and NPP6, in this work we produced transgenic rice cells ectopically expressing NPP1, NPP2 and NPP6 and purified the corresponding recombinant proteins as described in the Materials and Methods. Details of the processes for purification of recombinant proteins and quality of the final preparations are shown in Supplementary Table S2 and Supplementary Fig. S1A. […] Purification procedures of NPP1, NPP2 and NPP6 expressed in the transgenic rice cells (UNP1, UNP2 and UNP6, respectively) were essentially identical to those used in the earlier study ([Nanjo et al. 2006]). They are summarized in Supplementary Table S2. Rice callus cells (200 g) derived from the seed embryos of UNP1, UNP2 and UNP6 lines were homogenized in 5 vols. of 10 mM Tris–HCl (pH 8.8) and filtered through four layers of gauze. The homogenates were centrifuged at 20,000 × g for 10 min. The supernatants were then adjusted to acidic pH 5.4 with acetate buffer and centrifuged at 20,000 × g. After re-adjustment to pH 7.4 with 1.5 M Tris–HCl (pH 8.8) and further centrifugation at 20,000 × g, the resulting supernatants were applied to a Con A–Sepharose 4B column (ø 1.0 × 8 cm, Pharmacia) equilibrated with 40 mM Tris–HCl (pH 7.4), 0.5 M NaCl, 1 mM MnCl2 and 1 mM CaCl2, and eluted with 25 ml of 0.5 M α-methyl-D-mannopyranoside in 10 mM Tris–HCl (pH 7.4). The eluents were applied to a Q Sepharose HP column (ø 1.0 × 3 cm, Pharmacia) equilibrated with 10 mM Tris–HCl (pH 7.4) and eluted with 50 ml of a linear gradient of 0–0.5 M NaCl in 10 mM Tris–HCl (pH 7.4). Finally, the enzyme preparation was desalted by ultrafiltration on a Microcon YM-100 (Amicon).

purified protein [10] = substrate: O=P(O)(O)OP(=O)(O)O; experiment: purified protein; type: biochemical, Oryza sativa; settings: 37°C, optimal pH
[11] = substrate: O=c1ccn([C@@H]2O[C@H](CO[P@@](=O)(O)O[P@@](=O)(O)O[C@H]3O[C@H](CO)[C@@H](O)[C@H](O)[C@H]3O)[C@@H](O)[C@H]2O)c(=O)[nH]1; experiment: purified protein, by the assay type; design: steady-state hydrolysis kinetics of purified recombinant rice NPPs, substrate 0.1-10 mM, 37 °C, optimal pH
Description: as §1

[12] = optimal pH (pH 4.5 with ADP), pH 4.5
[13] = optimal pH (pH 6.0 with ADP-glucose), no metal required, pH 6.0
[14] = optimal pH (pH 4.0 with ADP), pH 4.0
[15] = optimal pH (pH 5.0 with ADP-glucose), pH 5.0

Molecule: Nc1ccn([C@@H]2O[C@H](COP(=O)(O)OP(=O)(O)O[C@H]3O[C@H](CO)[C@@H](O)[C@H](O)[C@H]3O)[C@@H](O)[C@H]2O)c(=O)n1 [CDP-glucose]
- Km (NPP1): 900 µM

Molecule: Nc1ncnc2c1ncn2[C@@H]1O[C@H](COP(=O)(O)OP(=O)(O)OP(=O)(O)O)[C@@H](O)[C@H]1O [ATP]
- Km (NPP1): 2100 µM

Molecule: Nc1nc2c(ncn2[C@@H]2O[C@H](COP(=O)(O)OP(=O)(O)O[C@H]3O[C@H](CO)[C@@H](O)[C@H](O)[C@@H]3O)[C@@H](O)[C@H]2O)c(=O)[nH]1 [GDP-mannose]
- Km (NPP1): 800 µM

B1: NPP2 (Oryza sativa Japonica Group) (protein)
chain: RGDEQPLSRIAIERATVAAVDSASVKAQPTVLGLKGQSSDWVVVEFSHPKPSNDDWIGVFSPSGFSSEICQPEYYGDLPPYLCTSPIKFQYANFNNADYNRSGKGLLRLQLINQREDFSFALFSGGLSAPKLIAISNKVSFQNPKAPVYPRLAQGKSWNEMTVTWTSGYSIKEAIPFVEWGHKGGNQMLSPAGTLTFSRNSMCGSPARTVGWRDPGYIHTSFLKELWPDSLYTYRLGHRLLDGTHIWSKSYSFRASPYPGQDSVQRVVIFGDMGKAEIDGSDEYGNYEQASLYTTNQLIKELDSIDMVIHIGDLSYANGYLSQWDQFTQQIEPIASTVPYMIGSGNHERDWPGSGSFYGHNDSGGECGVPTQTMFYVPAENRAKLWYSTDYGMFRFCIADTEQDWRPGTEQYKFIEQCLSSVDRSKQPWLIFLAHRVLGYSSASWYEIMMGSYGEPMGRDGLEELWQKYKVDLAVFGHIHSYERTCPIYQNRCVQDGSNLYTGQFNATTHVIVGGGGAMLSPFRATVPYWSFFRDYDFGFSKLTALNHSTLLFEYKKSRDGKVYDHFTISRDYRDIMACSIDNCPRTTLAV
notes: recombinant, purified from transgenic rice cells (UNP2); 71 kDa SDS-PAGE, 374 kDa gel filtration; gene on chromosome 12
- Km (purified protein [1]): 1200 µM
- Vmax (purified protein [1]): 85 µmol/min/mg
- kcat (purified protein [1]): 101 s⁻¹
- kcat/Km (purified protein [1]): 84000 M⁻¹ s⁻¹
- Km (purified protein [2]): 1900 µM
- Vmax (purified protein [2]): 76 µmol/min/mg
- kcat (purified protein [2]): 89 s⁻¹
- kcat/Km (purified protein [2]): 47000 M⁻¹ s⁻¹
- Km (purified protein [3]): 900 µM
- Vmax (purified protein [3]): 24 µmol/min/mg
- kcat (purified protein [3]): 28 s⁻¹
- kcat/Km (purified protein [3]): 32000 M⁻¹ s⁻¹
- Km (purified protein [4]; [12]): 1100 µM
- kcat (purified protein [4]; [12]): 80 s⁻¹
- kcat/Km (purified protein [4]; [12]): 73000 M⁻¹ s⁻¹
- Km (purified protein [5]): 2600 µM
- Vmax (purified protein [5]): 60 µmol/min/mg
- kcat (purified protein [5]): 71 s⁻¹
- kcat/Km (purified protein [5]): 27000 M⁻¹ s⁻¹
- Km (purified protein [6]): 2200 µM
- Vmax (purified protein [6]): 75 µmol/min/mg
- kcat (purified protein [6]): 88 s⁻¹
- kcat/Km (purified protein [6]): 40000 M⁻¹ s⁻¹

B2: NPP1 (Oryza sativa Japonica Group) (protein)
chain: T1 sequence (Q0X0G2 26-623)
notes: recombinant, purified from transgenic rice cells (UNP1) overexpressing NPP1 cDNA; 70 kDa SDS-PAGE, 251 kDa gel filtration; gene on chromosome 8
- Km (purified protein [7]): 800 µM
- Vmax (purified protein [7]): 93 µmol/min/mg
- kcat (purified protein [7]): 109 s⁻¹
- kcat/Km (purified protein [7]): 133000 M⁻¹ s⁻¹
- Km (purified protein [8]; [13]): 800 µM
- Vmax (purified protein [8]; [13]): 183 µmol/min/mg
- kcat (purified protein [8]; [13]): 214 s⁻¹
- kcat/Km (purified protein [8]; [13]): 250000 M⁻¹ s⁻¹
- Km [9]: 1600 µM
- Vmax [9]: 121 µmol/min/mg
- kcat [9]: 141 s⁻¹
- kcat/Km [9]: 85000 M⁻¹ s⁻¹

B3: NPP6 (Oryza sativa Japonica Group) (protein)
chain: GGGGGVWAFSSSSSSSSYSRIGEQPLSLIGIHRATVGIDAAASVQASPRLLGVKGEDTAWVTVDFAAPHASDGDWIGVFSPSNFNASTCPGPSGSDSGPVICSAPIKYQLANYSSDYGKTGKGTLKFQLINQRQDFSFALFTGGLSNPKLIAVSNKIAFANPKAPVYPRLAQGKSWNEMTVTWTSGYDIKEAYPFVEWGMKWSPPTRTAAGTVTFDRESLCGEPARTVGWRDPGFIHTAFLTDLWPNKEYYYKIGHMLPDGKIVWGKFYSFKAPPFPGQKSLQRVVIFGDMGKAERDGSNEYSNYQPGSLNTTDTLIKDLDNIDIVFHIGDITYANGYISQWDQFTQQVEPITARVPYMIASGNHERDWPNSGSFFNGTDSGGECGVLAETMYYTPTENRANYWYKTDYGMFRFCVADSEHDWREGTEQYAFIESCLATVDRKKQPWLVFIAHRVLGYSSGFFYGAGGAFAEPTARQSLQRLWQRHRVDLAFYGHVHNYERTCPVYDGRCASPERSRYSGAVGGTIHAVVGGGGSHLSNFTAEAPPWSVYREMDYGFVKLTAFNYTSLLYEYRRSSDGEVHDSFTVHREYRDVLACVADSCPPTIPPAT
notes: recombinant, purified from transgenic rice cells (UNP6); 74 kDa SDS-PAGE, 224 kDa gel filtration; gene on chromosome 9
- Km (purified protein [1]): 500 µM
- Vmax (purified protein [1]): 84 µmol/min/mg
- kcat (purified protein [1]): 104 s⁻¹
- kcat/Km (purified protein [1]): 203000 M⁻¹ s⁻¹
- Km (purified protein [4]; [14]): 300 µM
- Vmax (purified protein [4]; [14]): 68 µmol/min/mg
- kcat (purified protein [4]; [14]): 83 s⁻¹
- kcat/Km (purified protein [4]; [14]): 297000 M⁻¹ s⁻¹
- Km (purified protein [8]; [15]): 700 µM
- Vmax (purified protein [8]; [15]): 105 µmol/min/mg
- kcat (purified protein [8]; [15]): 130 s⁻¹
- kcat/Km (purified protein [8]; [15]): 193000 M⁻¹ s⁻¹
- Km (purified protein [10]): 500 µM
- Vmax (purified protein [10]): 64 µmol/min/mg
- kcat (purified protein [10]): 79 s⁻¹
- kcat/Km (purified protein [10]): 175000 M⁻¹ s⁻¹
- Km (purified protein [5]): 3000 µM
- Vmax (purified protein [5]): 250 µmol/min/mg
- kcat (purified protein [5]): 308 s⁻¹
- kcat/Km (purified protein [5]): 103000 M⁻¹ s⁻¹
- Km [11]: 1600 µM
- kcat [11]: 115 s⁻¹
- kcat/Km [11]: 73000 M⁻¹ s⁻¹
